This is an account of results in patent EP1980246A1.

The term EC50 denotes the concentration needed to bring the measured effect to its halfway point.

The target in experiment [1] is purified porcine TGF-β1 (Peninsula) (porcine) (UniProt P07200). Put plainly: active TGF-β ELISA, R2X capture, TGF-β titrated in TBS, BDA47 detection; ΔA50%.
Experiment [2] has as its target recombinant human TGF-β1 (human) (UniProt P01137). Described as above.

purified porcine TGF-β1 (Peninsula) (porcine), sequence (P07200 279-390 limits assumed): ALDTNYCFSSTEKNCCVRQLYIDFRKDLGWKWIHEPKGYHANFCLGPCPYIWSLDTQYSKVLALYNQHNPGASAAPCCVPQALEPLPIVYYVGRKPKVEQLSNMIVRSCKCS
recombinant human TGF-β1 (human), sequence (P01137 279-390 limits assumed): as the sequence (P07200 279-390 limits assumed) above

Consider “truncated extracellular domain of the type II TGF-beta receptor fused to glutathione-S-transferase (R2X) (from UniProt P08515 1-218; P37173 23-166)”, for which the figures for the EC50 in experiment [1] and in experiment [2] were 0.68 nM and 0.72 nM, respectively.
